The values below come from patent US20250333523A1 (Alector, published 2025).

Experiment [1] deals with T1, Avi/HisMsIL18BPd (recombinant mouse IL-18BP with Avi and poly-His tags) (mouse, biotinylated with BirA on the Avi tag in some assays).
T1 construct: also called murine IL-18BP; IL-18BP-Avi-His (mouse)
T1 chain: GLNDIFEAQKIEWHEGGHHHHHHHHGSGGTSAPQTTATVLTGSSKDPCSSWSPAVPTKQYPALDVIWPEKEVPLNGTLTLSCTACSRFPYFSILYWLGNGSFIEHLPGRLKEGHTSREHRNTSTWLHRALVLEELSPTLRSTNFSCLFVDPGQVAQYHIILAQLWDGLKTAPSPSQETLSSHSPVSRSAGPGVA
Kind of experiment: SPR, qualitative.

Experiment [2] has as its target T2, mouse IL-18BPd-human IgG Fc (R&D Systems, Cat. #122-BP-100) (mouse; human, UniProt Q9Z0M9 29-193).
T2 construct: Bought; also called mouse IL-18BPd-Fc Chimera
T2 sequence (looked up): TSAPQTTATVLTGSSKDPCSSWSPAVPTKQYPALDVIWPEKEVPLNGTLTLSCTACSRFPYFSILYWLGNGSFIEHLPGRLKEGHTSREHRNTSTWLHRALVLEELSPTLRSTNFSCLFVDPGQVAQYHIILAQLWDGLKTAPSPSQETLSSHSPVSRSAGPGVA
Put plainly: blocking ELISA, competitor mouse IL-18.

In experiment [3] the target is T3, His/Avi-CynoIL18BP (recombinant cynomolgus IL-18BP with His and Avi tags) (cynomolgus monkey).
T3 construct: also called cynomolgus IL-18BP-Avi-His
T3 chain: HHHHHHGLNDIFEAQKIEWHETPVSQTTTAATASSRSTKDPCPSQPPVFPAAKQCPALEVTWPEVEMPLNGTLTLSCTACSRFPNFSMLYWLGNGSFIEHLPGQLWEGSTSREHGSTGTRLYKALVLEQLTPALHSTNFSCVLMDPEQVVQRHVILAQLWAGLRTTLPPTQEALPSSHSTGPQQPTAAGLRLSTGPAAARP
Kind of experiment: blocking ELISA, competitor rhesus IL-18.

The target in experiment [4] is T4, Avi/His-HuIL18BPa (recombinant human IL-18BP isoform A with Avi and poly-His tags) (human, biotinylated with BirA on the Avi tag in some assays).
T4 construct: also called human IL-18BP-Avi-His
T4 chain: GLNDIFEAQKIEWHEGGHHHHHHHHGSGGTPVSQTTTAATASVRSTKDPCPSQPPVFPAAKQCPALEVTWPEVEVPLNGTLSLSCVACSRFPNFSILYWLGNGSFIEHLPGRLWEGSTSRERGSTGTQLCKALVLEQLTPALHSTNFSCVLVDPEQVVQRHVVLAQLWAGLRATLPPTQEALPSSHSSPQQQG
Put plainly: blocking ELISA, competitor human IL-18.

The target of experiment [5] is T4, Avi/His-HuIL18BPa (recombinant human …). Kind of experiment: cell-based or functional assay.
Experiment [6] addresses T1, Avi/HisMsIL18BPd (recombinant mouse …). Kind of experiment: cell-based or functional assay.
Experiment [7] deals with T3, His/Avi-CynoIL18BP (recombinant …). Put plainly: ELISA, coated IL-18BP.
Experiment [8] deals with T4, Avi/His-HuIL18BPa (recombinant human …). Put plainly: ELISA, coated IL-18BP.
The target of experiment [9] is T1, Avi/HisMsIL18BPd (recombinant mouse …). Kind of experiment: ELISA, coated IL-18BP.
Experiment [10] concerns the target T3, His/Avi-CynoIL18BP (recombinant …). Kind of experiment: cell-based or functional assay.

B1: anti-IL18BP antibody BP-06 (antibody, human IgG1, V domains shown)
VH: QIQLQQSGPELVKPGASVKISCKASGYTFTDYYLNWVKQTPGQGLEWIGWIYPGSGNTKYTEKFKDKASLTVDTSSNTAYMQLSSLTSDDTAVYFCARRGVAWFAYWGQGTLVTVSA
VL: DIKMTQSPSSIYASLGERVTITCKASQDINSYLSWFQQKPGKSPKTLIHRANRLVDGVPSRFSGSGSGQDYSLTISSLEYEDMGIYYCLQHDDFPPTFGAGTNLELK
With B1, the binding result in [1] is given as “no binding”. Moreover, the entries for the “blocking ELISA signal normalized to isotype control (=1)” value in experiment [2], in experiment [3] and in experiment [4] were 0.971 ratio to isotype control, 0.378 ratio to isotype control and 0.174 ratio to isotype control, respectively. Besides, the “EC50 of IFNγ release, human PBMC” value in experiment [5] was 1.23 nM. For the same molecule, in experiment [5], the “Fold change of IFNγ at 10 µg/ml vs baseline, human PBMC” value was 10.9 fold. Moreover, the “Fold change of IFNγ at 10 µg/ml vs baseline, mouse splenocytes” value in experiment [6] stood at 1.11 fold. Also, the “ELISA binding ratio (fold-change over background)” value in experiment [7] turned out to be 44.3 fold over background; in [8], 42.1 fold over background; in experiment [9] it was 1.2 fold over background. Besides, the “% of Max Gamma, human NK cells” value in experiment [10] is 75.8%. Moreover, in experiment [10], the “EC50 of IFNγ release, human NK cells” value is 8.07 nM.
